In the Human Domainome abundance scans (Beltran et al. 2025):
± gives the uncertainty stated by the source.

B1: Dystrobrevin alpha, residues 235 to 294; numbered along this chain, Q9Y4J8 (parent)
chain: ENVFHPVECSYCHSESMMGFRYRCQQCHNYQLCQDCFWRGHAGGSHSNQHQMKEYTSWKS

Variants of: B1
Experiment: abundance fitness (aPCA) (normalised: wild type 0, dead -1); higher = more abundant; growth selection in yeast, the domain comes from the species named
Details: Homo sapiens

For ENVFHPVECSYCPSESMMGFRYRCQQCHNYQLCQDCFWRGHAGGSHSNQHQMKEYTSWKS [H13P], which abundance fitness is on record?
Its abundance fitness is -0.677 ± 0.081.

For ENVFHPVECSYCWSESMMGFRYRCQQCHNYQLCQDCFWRGHAGGSHSNQHQMKEYTSWKS [H13W], which abundance fitness is on record?
Its abundance fitness is -0.584 ± 0.077.

With ENVFHPVECSYCGSESMMGFRYRCQQCHNYQLCQDCFWRGHAGGSHSNQHQMKEYTSWKS [H13G] as the variant, how does the abundance fitness read?
Its abundance fitness is -0.027 ± 0.048.

For ENVFHPVECSYCNSESMMGFRYRCQQCHNYQLCQDCFWRGHAGGSHSNQHQMKEYTSWKS [H13N], which abundance fitness is on record?
Its abundance fitness is -0.169 ± 0.11.

For ENVFHPVECSYCTSESMMGFRYRCQQCHNYQLCQDCFWRGHAGGSHSNQHQMKEYTSWKS [H13T], which abundance fitness is on record?
Its abundance fitness is -0.076 ± 0.055.

With ENVFHPVECSYCSSESMMGFRYRCQQCHNYQLCQDCFWRGHAGGSHSNQHQMKEYTSWKS [H13S] as the variant, how does the abundance fitness read?
The abundance fitness was -0.096 ± 0.073.

With ENVFHPVECSYCCSESMMGFRYRCQQCHNYQLCQDCFWRGHAGGSHSNQHQMKEYTSWKS [H13C] as the variant, how does the abundance fitness read?
The abundance fitness was -0.176 ± 0.12.

For ENVFHPVECSYCQSESMMGFRYRCQQCHNYQLCQDCFWRGHAGGSHSNQHQMKEYTSWKS [H13Q], which abundance fitness is on record?
Its abundance fitness is -0.172 ± 0.084.

With ENVFHPVECSYCHSEIMMGFRYRCQQCHNYQLCQDCFWRGHAGGSHSNQHQMKEYTSWKS [S16I] as the variant, how does the abundance fitness read?
The abundance fitness was 0.148 ± 0.055.

With ENVFHPVECSYCHSEGMMGFRYRCQQCHNYQLCQDCFWRGHAGGSHSNQHQMKEYTSWKS [S16G] as the variant, how does the abundance fitness read?
The abundance fitness was -0.128 ± 0.056.

With ENVFHPVECSYCHSEMMMGFRYRCQQCHNYQLCQDCFWRGHAGGSHSNQHQMKEYTSWKS [S16M] as the variant, how does the abundance fitness read?
The abundance fitness was -0.041 ± 0.073.

For ENVFHPVECSYCHSEWMMGFRYRCQQCHNYQLCQDCFWRGHAGGSHSNQHQMKEYTSWKS [S16W], which abundance fitness is on record?
The abundance fitness was -0.208 ± 0.057.

With ENVFHPVECSYCHSELMMGFRYRCQQCHNYQLCQDCFWRGHAGGSHSNQHQMKEYTSWKS [S16L] as the variant, how does the abundance fitness read?
Its abundance fitness is 0.023 ± 0.045.

For ENVFHPVECSYCHSETMMGFRYRCQQCHNYQLCQDCFWRGHAGGSHSNQHQMKEYTSWKS [S16T], which abundance fitness is on record?
The abundance fitness was 0.014 ± 0.062.

With ENVFHPVECSYCHSEEMMGFRYRCQQCHNYQLCQDCFWRGHAGGSHSNQHQMKEYTSWKS [S16E] as the variant, how does the abundance fitness read?
Its abundance fitness is -0.033 ± 0.067.

For ENVFHPVECSYCHSEHMMGFRYRCQQCHNYQLCQDCFWRGHAGGSHSNQHQMKEYTSWKS [S16H], which abundance fitness is on record?
The abundance fitness was -0.206 ± 0.083.

With ENVFHPVECSYCHSENMMGFRYRCQQCHNYQLCQDCFWRGHAGGSHSNQHQMKEYTSWKS [S16N] as the variant, how does the abundance fitness read?
Its abundance fitness is -0.011 ± 0.074.

For ENVFHPVECSYCHSEPMMGFRYRCQQCHNYQLCQDCFWRGHAGGSHSNQHQMKEYTSWKS [S16P], which abundance fitness is on record?
Its abundance fitness is -0.029 ± 0.059.

With ENVFHPVECSYCHSEDMMGFRYRCQQCHNYQLCQDCFWRGHAGGSHSNQHQMKEYTSWKS [S16D] as the variant, how does the abundance fitness read?
Its abundance fitness is 0.012 ± 0.085.

For ENVFHPVECSYCHSECMMGFRYRCQQCHNYQLCQDCFWRGHAGGSHSNQHQMKEYTSWKS [S16C], which abundance fitness is on record?
Its abundance fitness is -0.092 ± 0.063.

With ENVFHPVECSYCHSEYMMGFRYRCQQCHNYQLCQDCFWRGHAGGSHSNQHQMKEYTSWKS [S16Y] as the variant, how does the abundance fitness read?
The abundance fitness was -0.304 ± 0.069.

With ENVFHPVECSYCHSEFMMGFRYRCQQCHNYQLCQDCFWRGHAGGSHSNQHQMKEYTSWKS [S16F] as the variant, how does the abundance fitness read?
Its abundance fitness is -0.084 ± 0.054.

With ENVFHPVECSYCHSEQMMGFRYRCQQCHNYQLCQDCFWRGHAGGSHSNQHQMKEYTSWKS [S16Q] as the variant, how does the abundance fitness read?
Its abundance fitness is 0.043 ± 0.089.

With ENVFHPVECSYCHSEAMMGFRYRCQQCHNYQLCQDCFWRGHAGGSHSNQHQMKEYTSWKS [S16A] as the variant, how does the abundance fitness read?
The abundance fitness was -0.049 ± 0.059.

Which abundance fitness does the source give for ENVFHPVECSYCHSEVMMGFRYRCQQCHNYQLCQDCFWRGHAGGSHSNQHQMKEYTSWKS [S16V] here?
The abundance fitness was 0.009 ± 0.055.

For ENVFHPVECSYCHSERMMGFRYRCQQCHNYQLCQDCFWRGHAGGSHSNQHQMKEYTSWKS [S16R], which abundance fitness is on record?
The abundance fitness was 0.06 ± 0.046.

For ENVFHPVECSYCHSEKMMGFRYRCQQCHNYQLCQDCFWRGHAGGSHSNQHQMKEYTSWKS [S16K], which abundance fitness is on record?
Its abundance fitness is 0.001 ± 0.08.

Which abundance fitness does the source give for ENVFHPVECSYCHSMSMMGFRYRCQQCHNYQLCQDCFWRGHAGGSHSNQHQMKEYTSWKS [E15M] here?
The abundance fitness was 0.074 ± 0.08.

For ENVFHPVECSYCHSNSMMGFRYRCQQCHNYQLCQDCFWRGHAGGSHSNQHQMKEYTSWKS [E15N], which abundance fitness is on record?
Its abundance fitness is 0.03 ± 0.11.

Which abundance fitness does the source give for ENVFHPVECSYCHSISMMGFRYRCQQCHNYQLCQDCFWRGHAGGSHSNQHQMKEYTSWKS [E15I] here?
The abundance fitness was 0.018 ± 0.14.

With ENVFHPVECSYCHSDSMMGFRYRCQQCHNYQLCQDCFWRGHAGGSHSNQHQMKEYTSWKS [E15D] as the variant, how does the abundance fitness read?
The abundance fitness was 0.195 ± 0.1.

With ENVFHPVECSYCHSYSMMGFRYRCQQCHNYQLCQDCFWRGHAGGSHSNQHQMKEYTSWKS [E15Y] as the variant, how does the abundance fitness read?
The abundance fitness was -0.23 ± 0.091.

With ENVFHPVECSYCHSHSMMGFRYRCQQCHNYQLCQDCFWRGHAGGSHSNQHQMKEYTSWKS [E15H] as the variant, how does the abundance fitness read?
The abundance fitness was 0.078 ± 0.091.

With ENVFHPVECSYCHSGSMMGFRYRCQQCHNYQLCQDCFWRGHAGGSHSNQHQMKEYTSWKS [E15G] as the variant, how does the abundance fitness read?
The abundance fitness was -0.105 ± 0.062.

With ENVFHPVECSYCHSTSMMGFRYRCQQCHNYQLCQDCFWRGHAGGSHSNQHQMKEYTSWKS [E15T] as the variant, how does the abundance fitness read?
Its abundance fitness is 0.034 ± 0.042.

For ENVFHPVECSYCHSFSMMGFRYRCQQCHNYQLCQDCFWRGHAGGSHSNQHQMKEYTSWKS [E15F], which abundance fitness is on record?
The abundance fitness was -0.133 ± 0.1.

For ENVFHPVECSYCHSPSMMGFRYRCQQCHNYQLCQDCFWRGHAGGSHSNQHQMKEYTSWKS [E15P], which abundance fitness is on record?
The abundance fitness was 0.1 ± 0.09.

Which abundance fitness does the source give for ENVFHPVECSYCHSLSMMGFRYRCQQCHNYQLCQDCFWRGHAGGSHSNQHQMKEYTSWKS [E15L] here?
The abundance fitness was -0.087 ± 0.05.

With ENVFHPVECSYCHSRSMMGFRYRCQQCHNYQLCQDCFWRGHAGGSHSNQHQMKEYTSWKS [E15R] as the variant, how does the abundance fitness read?
The abundance fitness was 0.054 ± 0.054.

With ENVFHPVECSYCHSASMMGFRYRCQQCHNYQLCQDCFWRGHAGGSHSNQHQMKEYTSWKS [E15A] as the variant, how does the abundance fitness read?
The abundance fitness was -0.041 ± 0.055.

With ENVFHPVECSYCHSWSMMGFRYRCQQCHNYQLCQDCFWRGHAGGSHSNQHQMKEYTSWKS [E15W] as the variant, how does the abundance fitness read?
Its abundance fitness is -0.104 ± 0.072.

For ENVFHPVECSYCHSKSMMGFRYRCQQCHNYQLCQDCFWRGHAGGSHSNQHQMKEYTSWKS [E15K], which abundance fitness is on record?
The abundance fitness was -0.022 ± 0.083.

With ENVFHPVECSYCHSSSMMGFRYRCQQCHNYQLCQDCFWRGHAGGSHSNQHQMKEYTSWKS [E15S] as the variant, how does the abundance fitness read?
The abundance fitness was 0.03 ± 0.049.

For ENVFHPVECSYCHSCSMMGFRYRCQQCHNYQLCQDCFWRGHAGGSHSNQHQMKEYTSWKS [E15C], which abundance fitness is on record?
The abundance fitness was -0.171 ± 0.09.

Which abundance fitness does the source give for ENVFHPVECSYCHSQSMMGFRYRCQQCHNYQLCQDCFWRGHAGGSHSNQHQMKEYTSWKS [E15Q] here?
Its abundance fitness is 0.079 ± 0.062.
